Details: Escherichia coli (strain K12); pH 7; 4 °C; GdnHCl; CD; PBS; whole UniProt chain shown

B1: Major outer membrane lipoprotein Lpp wild type, P69776 (protein)
chain: MKATKLVLGAVILGSTLLAGCSSNAKIDQLSSDVQTLNAKVDQLSNDVNAMRSDVQAAKDDAARANQRLDNMATKYRK
- unfolding free energy: 18.8 kcal/mol

From FireProtDB (doi:10.1006/jmbi.2000.3776)
